Literature values as cited in patent US12194157B2, “Carrier for targeted delivery to a host” (Finncure Oy, priority 2020, dated 2025).

Target: ACE2 (Homo sapiens, UniProt Q9BYF1)
Conditions: simulation, ref [8]

ACE2, sequence (Q9BYF1 18-805): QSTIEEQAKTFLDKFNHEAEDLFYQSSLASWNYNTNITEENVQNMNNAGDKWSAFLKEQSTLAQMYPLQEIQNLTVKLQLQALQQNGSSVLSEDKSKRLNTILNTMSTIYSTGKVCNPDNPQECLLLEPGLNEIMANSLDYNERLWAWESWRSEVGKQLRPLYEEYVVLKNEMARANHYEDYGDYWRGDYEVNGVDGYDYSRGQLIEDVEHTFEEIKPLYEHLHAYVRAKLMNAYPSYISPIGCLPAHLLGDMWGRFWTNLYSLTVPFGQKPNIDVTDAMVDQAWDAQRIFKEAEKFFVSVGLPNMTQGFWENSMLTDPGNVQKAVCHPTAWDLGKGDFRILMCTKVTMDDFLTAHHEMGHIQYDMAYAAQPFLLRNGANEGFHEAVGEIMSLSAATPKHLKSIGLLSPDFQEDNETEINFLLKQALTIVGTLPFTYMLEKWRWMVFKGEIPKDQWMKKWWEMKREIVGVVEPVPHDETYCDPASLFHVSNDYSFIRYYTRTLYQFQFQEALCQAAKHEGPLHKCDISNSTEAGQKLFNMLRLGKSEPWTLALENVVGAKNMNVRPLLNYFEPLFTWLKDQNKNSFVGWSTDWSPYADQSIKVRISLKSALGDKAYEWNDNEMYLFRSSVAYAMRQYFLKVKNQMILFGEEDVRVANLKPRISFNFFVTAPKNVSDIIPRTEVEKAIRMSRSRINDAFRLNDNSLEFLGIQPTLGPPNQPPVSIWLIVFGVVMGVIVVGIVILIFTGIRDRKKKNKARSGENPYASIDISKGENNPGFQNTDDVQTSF

| Substance | binding affinity towards the ACE2 receptor relative to YKYRYL |
| --- | --- |
| YKYNYI (Potential alternative synthetic hexapeptide variant) [alternative synthetic hexapeptide variant from simulation] | even stronger binding affinity |
| YKYNYL (Potential alternative synthetic hexapeptide variant) [alternative synthetic hexapeptide variant from simulation] | even stronger binding affinity |
